Positions count from the first letter of the chain named. Blank lines part the entries; values can stand above or below the binder they belong to.
Tests used:
human PD1 = target: T1, human PD1 (human, UniProt Q15116 25-167, limits assumed); assay: binding kinetics to hPD1, method not stated
T1 construct: the construct is not described; also called hPD1; programmed cell death protein 1

[1] = target: human IL-12 receptor on cells (human, UniProt P42701 24-662; Q99665 24-862); assay: cell-based or functional assay
Chain of human IL-12 receptor on cells (Q99665 24-862, chain 2 of 2, other chains not shown): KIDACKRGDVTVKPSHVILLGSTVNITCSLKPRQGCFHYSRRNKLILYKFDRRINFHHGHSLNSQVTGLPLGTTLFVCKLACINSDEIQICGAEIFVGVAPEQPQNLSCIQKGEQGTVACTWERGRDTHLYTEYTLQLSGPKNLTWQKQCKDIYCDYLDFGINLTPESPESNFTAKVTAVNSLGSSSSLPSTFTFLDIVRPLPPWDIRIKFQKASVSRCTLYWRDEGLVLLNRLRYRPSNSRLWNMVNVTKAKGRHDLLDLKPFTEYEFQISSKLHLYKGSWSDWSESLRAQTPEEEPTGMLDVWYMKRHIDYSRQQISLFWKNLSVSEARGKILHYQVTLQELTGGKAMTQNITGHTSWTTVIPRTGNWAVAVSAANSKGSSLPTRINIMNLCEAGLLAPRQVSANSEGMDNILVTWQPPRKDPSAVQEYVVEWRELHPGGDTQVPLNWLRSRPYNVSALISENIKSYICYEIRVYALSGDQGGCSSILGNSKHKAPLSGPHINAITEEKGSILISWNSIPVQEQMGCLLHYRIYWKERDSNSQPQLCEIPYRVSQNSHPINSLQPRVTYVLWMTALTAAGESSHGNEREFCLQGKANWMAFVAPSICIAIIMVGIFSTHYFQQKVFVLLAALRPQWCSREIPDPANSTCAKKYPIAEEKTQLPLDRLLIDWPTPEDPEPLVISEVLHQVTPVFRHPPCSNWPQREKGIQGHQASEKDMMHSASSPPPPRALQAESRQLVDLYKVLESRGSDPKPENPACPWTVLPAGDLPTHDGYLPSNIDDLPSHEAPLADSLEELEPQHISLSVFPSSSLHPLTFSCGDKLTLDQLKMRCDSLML

T1 sequence (Q15116 25-167 limits assumed): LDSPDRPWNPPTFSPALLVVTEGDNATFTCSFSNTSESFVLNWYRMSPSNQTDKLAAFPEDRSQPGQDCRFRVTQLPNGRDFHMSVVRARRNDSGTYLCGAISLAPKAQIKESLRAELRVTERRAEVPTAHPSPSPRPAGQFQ

B1: TPP-76868 (antibody, V domains shown)
VH: EVQLVESGGGLVQPGGSLRLSCAASGFSFGDFDMRWFRQAPGKGLEWVGLIKSRAYLEATEFAASVEGRFTISRDDAKNSAYLQMNSLRAEDTAVYYCTRDSYSSGLLDYWGQGTLVTVSS
VL: DIQMTQSPSSLSASVGDRVTITCRASQGISNYLAWFQQKPGKAPKRLIYAAQIPGSGVPSRFSGSGSGTDFTLTISSLQPEDFATYYCLQHYSYPLTFGGGTKVEIK
Kd (human PD1): 3 nM
koff (human PD1): 0.000391 s⁻¹
kon (human PD1): 135000 M⁻¹ s⁻¹
t1/2 (human PD1): 1770 s (not printed; inferred from ln2/kd)

B4: H10/TPP-76868 fusion protein (other)
heavy 1: EVQLVESGGGLVQPGGSLRLSCAASGFSFGDFDMRWFRQAPGKGLEWVGLIKSRAYLEATEFAASVEGRFTISRDDAKNSAYLQMNSLRAEDTAVYYCTRDSYSSGLLDYWGQGTLVTVSSASTKGPSVFPLAPSSKSTSGGTAALGCLVKDYFPEPVTVSWNSGALTSGVHTFPAVLQSSGLYSLSSVVTVPSSSLGTQTYICNVNHKPSNTKVDKKVEPKSCDKTHTCPPCPAPEAAGAPSVFLFPPKPKDTLMISRTPEVTCVVVDVSHEDPEVKFNWYVDGVEVHNAKTKPREEQYNSTYRVVSVLTVLHQDWLNGKEYKCKVSNKALPAPIEKTISKAKGQPREPQVYTLPPCREEMTKNQVSLSCAVKGFYPSDIAVEWESNGQPENNYKTTPPVLDSDGSFFLVSKLTVDKSRWQQGNVFSCSVMHEALHNHYTQKSLSLSPGK
heavy 2: EVQLVESGGGLVQPGGSLRLSCAASGFSFGDFDMRWFRQAPGKGLEWVGLIKSRAYLEATEFAASVEGRFTISRDDAKNSAYLQMNSLRAEDTAVYYCTRDSYSSGLLDYWGQGTLVTVSSASTKGPSVFPLAPSSKSTSGGTAALGCLVKDYFPEPVTVSWNSGALTSGVHTFPAVLQSSGLYSLSSVVTVPSSSLGTQTYICNVNHKPSNTKVDKKVEPKSCDKTHTCPPCPAPEAAGAPSVFLFPPKPKDTLMISRTPEVTCVVVDVSHEDPEVKFNWYVDGVEVHNAKTKPREEQYNSTYRVVSVLTVLHQDWLNGKEYKCKVSNKALPAPIEKTISKAKGQPREPQVCTLPPSREEMTKNQVSLWCLVKGFYPSDIAVEWESNGQPENNYKTTPPVLDSDGSFFLYSKLTVDKSRWQQGNVFSCSVMHEALHNHYTQKSLSLSPGSGGGGSGGGGSGGGGRNLPVATPDPGMFPCLHHSQNLLRAVSNMLQKARQTLEFYPCTSEEIDHEDITKDKTSTVEACLPLELTKNESCLNSRETSFITNGSCLASRKTSFMMALCLSSIYEDLKMYQVEFKTMNAKLLMDPKRQIFLDQNMLAVIDELMQALNFNSETVPQKSSLEEPDFAKTKIKLCILLHAFRIRAVTIDRVMSYLNAS
light: DIQMTQSPSSLSASVGDRVTITCRASQGISNYLAWFQQKPGKAPKRLIYAAQIPGSGVPSRFSGSGSGTDFTLTISSLQPEDFATYYCLQHYSYPLTFGGGTKVEIKRTVAAPSVFIFPPSDEQLKSGTASVVCLLNNFYPREAKVQWKVDNALQSGNSQESVTEQDSKDSTYSLSSTLTLSKADYEKHKVYACEVTHQGLSSPVTKSFNRGEC
chain: IWELKKDVYVVELDWYPDAPGEMVVLTCDTPEEDGITWTLDQSSEVLGSGKTLTIQVKEFGDAGQYTCHKGGEVLSHSLLLLHKKEDGIWSTLILKDQKEPKNKTFLRCEAKNYSGRFTCWWLTTISTDLTFSVKSSRGSSDPQGVTCGAATLSAERVRGDNKEYEYSVECQEDSACPAAEESLPIEVMVDAVHKLKYENYTSSFFIRDIIKPDPPKNLQLKPLKNSRQVEVSWEYPDTWSTPHSYFSLTFCVQVQGGGGDRVFTDKTSATVICRKNASISVRAQDRYYSSSWSEWASVPCS
CD4 T cell activation assay PSTAT4 EC50 (ug/ml); Donor #1 [1]: 0.139 µg/mL
CD4 T cell activation assay PSTAT4 EC50 (ug/ml); Donor #2 [1]: 0.998 µg/mL

B5: H10/TPP-77658 fusion protein (other)
heavy 1: B4 heavy 1 with L50T, S102A
heavy 2: B4 heavy 2 with L50T, S102A
light: B4 light
chain: B4 chain
CD4 T cell activation assay PSTAT4 EC50 (ug/ml); Donor #1 [1]: 0.235 µg/mL
CD4 T cell activation assay PSTAT4 EC50 (ug/ml); Donor #2 [1]: 1.54 µg/mL

Next, values leading:

Kd (human PD1): 3 nM
koff (human PD1): 0.000251 s⁻¹
kon (human PD1): 78500 M⁻¹ s⁻¹
t1/2 (human PD1): 2760 s (not printed; inferred from ln2/kd)
B2: TPP-68807 (antibody, V domains shown)
VH: B1 VH with R54K, L57R, E58Y
VL: B1 VL with Q52S, Y92K

Kd (human PD1): 7 nM
koff (human PD1): 0.000765 s⁻¹
kon (human PD1): 109000 M⁻¹ s⁻¹
t1/2 (human PD1): 906 s (not printed; inferred from ln2/kd)
B3: TPP-77658 (antibody, V domains shown)
VH: B1 VH with L50T, S102A
VL: B1 VL

— patent US20240010696A1 (Pfizer, published 2024)
